{"source": "paper PMC4774423", "about": "(Frontiers in Immunology, 2016)", "binders": {"B1": {"name": "recombinant human calreticulin (natural protein, UniProt P27797 18-417, looked up)", "chain": "EPAVYFKEQFLDGDGWTSRWIESKHKSDFGKFVLSSGKFYGDEEKDKGLQTSQDARFYALSASFEPFSNKGQTLVVQFTVKHEQNIDCGGGYVKLFPNSLDQTDMHGDSEYNIMFGPDICGPGTKKVHVIFNYKGKNVLINKDIRCKDDEFTHLYTLIVRPDNTYEVKIDNSQVESGSLEDDWDFLPPKKIKDPDASKPEDWDERAKIDDPTDSKPEDWDKPEHIPDPDAKKPEDWDEEMDGEWEPPVIQNPEYKGEWKPRQIDNPDYKGTWIHPEIDNPEYSPDPSIYAYDNFGVLGLDLWQVKSGTIFDNFLITNDEAYAEEFGNETWGVTKAAEKQMKDKQDEEQRLKEEEEDKKRKEEEEAEDKEDDEDKDEDEEDEEDKEEDEEEDVPGQAKDEL", "notes": "human calreticulin, recombinant; also called CRT"}, "B2": {"name": "recombinant human receptor for the globular heads of C1q (gC1qR) (receptor, UniProt Q07021 74-282, looked up)", "chain": "LHTDGDKAFVDFLSDEIKEERKIQKHKTLPKMSGGWELELNGTEAKLVRKVAGEKITVTFNINNSIPPTFDGEEEPSQGQKVEEQEPELTSTPNFVVEVIKNDDGKKALVLDCHYPEDEVGQEDEAESDIFSIREVSFQSTGESEWKDTNYTLNTDSLDWALYDHLMDFLADRGVDNTFADELVELSTALEHQEYITFLEDLKSFVKSQ", "notes": "the mature protein is recalled to begin at residue 74 of the precursor; also called receptor for C1q globular heads"}, "B3": {"name": "gC1qA module of C1q-scGR (residues 88-223 of mature C1qA) (domain or fragment, human, UniProt P02745 110-245, looked up)", "chain": "KDQPRPAFSAIRRNPPMGGNVVIFDTVITNQEEPYQNHSGRFVCTVPGYYYFTFQVLSQWEICLSIVSSSRGQVRRSLGFCDTTNKGLFQVVSGGMVLQLQQGDQVWVEKDPKKGHIYQGSEADSVFSGFLIFPSA", "modifications": "N-glycan at Asn 124", "notes": "globular domain of human C1q chain A; numbers count on: the mature protein; In the crystal it is joined on one chain with gC1qC (Gly-Ser-Gly linker) and gC1qB: see m1; also called subunit A; source: 293-F cells, as part of the single chain C1q-scGR, purified"}}, "settings_in_all_cases": "both partners purified", "key": {"[1]": {"target": "T1, recombinant human long pentraxin PTX3 (human, UniProt P26022 18-381)", "T1 construct": "human pentraxin 3, recombinant", "T1 sequence (P26022 18-381)": "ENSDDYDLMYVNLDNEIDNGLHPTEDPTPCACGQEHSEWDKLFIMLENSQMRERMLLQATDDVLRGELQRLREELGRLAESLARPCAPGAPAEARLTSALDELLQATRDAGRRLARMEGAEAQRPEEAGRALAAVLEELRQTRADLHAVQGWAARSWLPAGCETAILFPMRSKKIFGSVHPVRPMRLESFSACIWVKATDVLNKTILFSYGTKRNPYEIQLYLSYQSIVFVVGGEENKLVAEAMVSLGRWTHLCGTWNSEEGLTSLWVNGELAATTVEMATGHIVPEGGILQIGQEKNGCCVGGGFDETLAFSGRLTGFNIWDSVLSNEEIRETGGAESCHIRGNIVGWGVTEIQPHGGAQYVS", "assay": "SPR; Biacore 3000, 25°C; CRT, gC1qR and PTX3 amine-coupled on CM5; C1q samples flowed at 20 μl/min in 50 mM Tris-HCl, 150 mM NaCl, 2 mM CaCl2, 0.005% P20, pH 7.4; global fit 1:1 Langmuir (two-state model for C1q-CRT); apparent KD"}, "[2]": {"target": "B1", "assay": "SPR; Biacore 3000, 25°C; CRT, gC1qR and PTX3 amine-coupled on CM5; C1q samples flowed at 20 μl/min in 50 mM Tris-HCl, 150 mM NaCl, 2 mM CaCl2, 0.005% P20, pH 7.4; global fit 1:1 Langmuir (two-state model for C1q-CRT); apparent KD"}, "[3]": {"target": "B2", "assay": "SPR; Biacore 3000, 25°C; CRT, gC1qR and PTX3 amine-coupled on CM5; C1q samples flowed at 20 μl/min in 50 mM Tris-HCl, 150 mM NaCl, 2 mM CaCl2, 0.005% P20, pH 7.4; global fit 1:1 Langmuir (two-state model for C1q-CRT); apparent KD"}, "[4]": {"target": "T2, globular regions of C1q prepared by collagenase digestion of serum-derived C1q (C1q-GR) (human, UniProt P02745 112-245; P02746 118-253; P02747 115-245)", "T2 construct": "globular region of human C1q chain A left after collagenase digestion; globular region of human C1q chain B left after collagenase digestion; globular region of human C1q chain C left after collagenase digestion; Heterotrimer of the three globular modules; Mw 48,000 used for concentration; also called serum-derived C1q-GR; plasma-derived C1q-GR; source: collagenase digestion of C1q purified from …", "assay": "SPR; Biacore 3000, 25°C; CRT, gC1qR and PTX3 amine-coupled on CM5; C1q samples flowed at 20 μl/min in 50 mM Tris-HCl, 150 mM NaCl, 2 mM CaCl2, 0.005% P20, pH 7.4; global fit 1:1 Langmuir (two-state model for C1q-CRT); apparent KD"}, "[5]": {"target": "T3, C1q purified from human serum (full-length C1q) (human, UniProt P02745 23-245; P02746 28-253; P02747 29-245)", "T3 construct": "also called intact C1q; native C1q; source: purified from human serum; copies: 6 + 6 + 6", "assay": "SPR; Biacore 3000, 25°C; CRT, gC1qR and PTX3 amine-coupled on CM5; C1q samples flowed at 20 μl/min in 50 mM Tris-HCl, 150 mM NaCl, 2 mM CaCl2, 0.005% P20, pH 7.4; global fit 1:1 Langmuir (two-state model for C1q-CRT); apparent KD"}, "[6]": {"target": "T4, gC1qB module of C1q-scGR (residues 90-226 of mature C1qB) (human, UniProt P02746 117-253)", "T4 construct": "globular domain of human C1q chain B; numbers count on: the mature protein; In the crystal it is joined on one chain after gC1qC (Gly-Ser-Ala linker): see m1; also called subunit B; source: 293-F cells, as part of the single chain C1q-scGR, purified", "assay": "crystal structure; C1q-scGR crystallised with and without calcium in the reservoir; 1.35 and 1.55 Å"}, "[7]": {"target": "B3", "assay": "crystal structure; C1q-scGR crystallised with and without calcium in the reservoir; 1.35 and 1.55 Å"}}}
{"binder": "single-chain recombinant form of human C1q globular region (C1q-scGR) (domain or fragment, N-glycan (biantennary, sialylated) at Asn 124 of C1qA, globular domain of human complement C1q chain A (gC1qA), residues 88-223 of mature C1qA; numbers count on: the mature protein; Gly-Ser-Gly linker between gC1qA and gC1qC; Gly-Ser-Ala linker between gC1qC and gC1qB; globular domain of human complement C1q chain B (gC1qB), residues 90-226 of mature C1qB; An insect-cell version (C1qA 85-223, melittin signal peptide) was also made but was low-yield …) KDQPRPAFSAIRRNPPMGGNVVIFDTVITNQEEPYQNHSGRFVCTVPGYYYFTFQVLSQWEICLSIVSSSRGQVRRSLGFCDTTNKGLFQVVSGGMVLQLQQGDQVWVEKDPKKGHIYQGSEADSVFSGFLIFPSAGSGKQKFQSVFTVTRQTHQPPAPNSLIRFNAVLTNPQGDYDTSTGKFTCKVPGLYYFVYHASHTANLCVLLYRSGVKVVTFCGHTSKTNQVNSGGVLLRLQVGEEVWLAVNDYYDMVGIQGSDSVFSGFLLFPDGSAKATQKIAFSATRTINVPLRRDQTIRFDHVITNMNNNYEPRSGKFTCKVPGLYYFTYHASSRGNLCVNLMRGRERAQKVVTFCDYAYNTFQVTTGGMVLKLEQGENVFLQATDKNSLLGMEGANSIFSGFLLFPDMEA", "values": [{"measurement": "Kd", "setting": "[1]", "result": 444, "unit": "nM"}, {"measurement": "koff", "setting": "[1]", "result": 0.000552, "unit": "s⁻¹"}, {"measurement": "kon", "setting": "[1]", "result": 1320, "unit": "M⁻¹ s⁻¹"}, {"measurement": "Kd", "setting": "[2]", "result": 494, "unit": "nM"}, {"measurement": "koff", "setting": "[2]", "result": 0.00136, "unit": "s⁻¹"}, {"measurement": "kon", "setting": "[2]", "result": 2800, "unit": "M⁻¹ s⁻¹"}, {"measurement": "Kd", "setting": "[3]", "result": 304, "unit": "nM"}, {"measurement": "koff", "setting": "[3]", "result": 0.00067, "unit": "s⁻¹"}, {"measurement": "kon", "setting": "[3]", "result": 2220, "unit": "M⁻¹ s⁻¹"}]}
{"binder": "B1", "values": [{"measurement": "Kd", "setting": "[4]", "result": 510, "unit": "nM"}, {"measurement": "koff", "setting": "[4]", "result": 0.00234, "unit": "s⁻¹"}, {"measurement": "kon", "setting": "[4]", "result": 4630, "unit": "M⁻¹ s⁻¹"}, {"measurement": "Kd", "setting": "[5]", "result": 590, "unit": "nM"}]}
{"binder": "B2", "values": [{"measurement": "Kd", "setting": "[4]", "result": 344, "unit": "nM"}, {"measurement": "koff", "setting": "[4]", "result": 0.00149, "unit": "s⁻¹"}, {"measurement": "kon", "setting": "[4]", "result": 4400, "unit": "M⁻¹ s⁻¹"}, {"measurement": "Kd", "setting": "[5]", "result": 7.2, "unit": "nM"}, {"measurement": "koff", "setting": "[5]", "result": 0.000457, "unit": "s⁻¹"}, {"measurement": "kon", "setting": "[5]", "result": 68000, "unit": "M⁻¹ s⁻¹"}]}
{"binder": "gC1qC module of C1q-scGR (residues 87-217 of mature C1qC) (domain or fragment, human, UniProt P02747 115-245, looked up, globular domain of human C1q chain C; numbers count on: the mature protein; In the crystal it is joined on one chain between gC1qA and gC1qB: see m1; also called subunit C; source: 293-F cells, as part of the single chain C1q-scGR, purified) KQKFQSVFTVTRQTHQPPAPNSLIRFNAVLTNPQGDYDTSTGKFTCKVPGLYYFVYHASHTANLCVLLYRSGVKVVTFCGHTSKTNQVNSGGVLLRLQVGEEVWLAVNDYYDMVGIQGSDSVFSGFLLFPD", "values": [{"measurement": "binding result", "setting": "[6]", "result": "binds"}, {"measurement": "binding result", "setting": "[7]", "result": "binds"}]}
{"binder": "B3", "values": [{"measurement": "binding result", "setting": "[6]", "result": "binds"}]}
